From US20040126856A1, “Factor ixa: factor Vllla interaction and methods therefor” (priority 2004, published 2004)

What was measured:
[1] = target: T1, factor X (Homo sapiens, UniProt P00742); assay: Activation of factor X by factor IXa proteins in the presence of only Ca2+ and PL (absence of factor VIIIa); type: biochemical; settings: 20 nM factor IXa; for kcat: 5 mM CaCl2, absence of factor VIIIa; for Km: 5 mM CaCl2, factor X 25 nM to 3 μM, absence of factor VIIIa
T1 construct: Normal plasma factor IX (IXNP) and factor X was isolated as previously described; from tissue; host or cells: normal plasma
Protocol: Activation of Factor X by Each Factor IXa Protein in the Presence of Only Ca^2+ and PL.
For these studies, each factor IX was activated with factor XIa/Ca^2+ as described above. For factor X activation studies, the concentration of factor IXa was kept at 20 nM and the buffer used was TBS/BSA (TBS with […] BSA) containing 5 mM CaCl2. The concentrations of PL used were 10, 25, 50, and 100 μM in different sets of experiments. The concentration of factor X at each PL concentration ranged from 25 nM to 3 μM. The activations were carried out for 5-15 min and the amount of factor Xa generated was measured by hydrolysis of S-2222 as described previously (Mather and Bajaj, 1999; Mather et al., 1997). The Km and kcat values were obtained using the program GraFit from Erithacus Software.

[2] = target: T2, A2 558-565 peptide (Homo sapiens, UniProt P00451); assay: Apparent Kdpeptide of binding of each factor IXa to the A2 558-565 peptide; type: biochemical; settings: for Kd: values from FIG. 5, A2 558-565 peptide, read-out: App Kdpeptide; for ΔG°peptide: ΔG° = RTlnKd, 298 Kelvin
T2 construct: made in house; host or cells: chemical synthesis (synthetic peptide)
Protocol: Determination of the Apparent Kdpeptide of Binding of Each Factor IXa to the A2 558-565 Peptide.
The apparent Kd (termed Kdpeptide) for binding of each factor IXa to the A2 558-565 peptide was determined by its ability to inhibit the respective IXa:A2 subunit interaction as measured by reduction in the rate of factor X activation in the tenase system. The reaction mixtures for both IXaWT and IXaPCEGF1 contained 100 nM factor IXa, 30 nM A2 subunit, 250 nM factor X, and 25 μM PL in TBS/BSA, pH 7.5 with 5 mM CaCl2. The reaction mixture for IXaR333Q contained 300 nM factor IXa instead of 100 nM used for IXaWT or IXaPCEGF1; concentrations of other components were the same. The amount of factor Xa generated was determined by hydrolysis of S-2222. The IC50 values were obtained using Eq. 2. Here, y is the rate of factor Xa formation in the presence of a given concentration of the A2 558-565 peptide represented by x, and a is the maximum rate of factor Xa formation in the absence of the A2 peptide. Eq. 3 was then used to obtain the apparent Kdpeptide values. In this context, A is the concentration of IXaWT, IXaPCEGF1, or IXaR333Q, and EC50 is the apparent KdA2 for the respective IXa:A2 subunit interaction.

[3] = target: T3, A2 subunit of factor VIIIa (Homo sapiens, UniProt P00451); assay: Fluorescence quenching of the dansyl moiety in dEGR-IXa by the A2 subunit; type: binding; settings: for Change in dansyl fluorescence emission intensity on titration with A2 subunit: 100 μM PL (FIG. 4)
T3 construct: cleaved by thrombin at R372-S373, R740-S741, and R1689-S1690 to yield factor VIIIa
T3 sequence (P00451 392-759): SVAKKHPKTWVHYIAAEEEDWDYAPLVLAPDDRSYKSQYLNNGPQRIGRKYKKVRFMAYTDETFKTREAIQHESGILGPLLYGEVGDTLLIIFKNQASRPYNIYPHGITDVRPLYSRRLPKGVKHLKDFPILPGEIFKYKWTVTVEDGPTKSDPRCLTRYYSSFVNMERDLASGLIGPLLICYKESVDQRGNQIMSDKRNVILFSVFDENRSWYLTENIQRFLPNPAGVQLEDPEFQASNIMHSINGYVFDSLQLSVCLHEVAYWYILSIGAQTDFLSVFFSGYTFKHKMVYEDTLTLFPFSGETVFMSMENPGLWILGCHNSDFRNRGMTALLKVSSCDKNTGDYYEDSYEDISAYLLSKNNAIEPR
Protocol: Fluorescence Quenching of the Dansyl Moiety in dEGR-IXa by the A2 Subunit.
The effect of the A2 subunit on the emission intensity of the dansyl moiety in each dEGR-IXa protein was determined using the SLM AB2 spectrofluorometer. Each reaction mixture contained 220 nM dEGR-IXa in 20 mM Hepes, pH 7.2, 100 mM NaCl, 5 mM CaCl2, 0.01% Tween, 200 μg/ml BSA and 100 μM PL vesicles. The excitation wavelength was 340 nm (slit width, 8 nm) and the emission wavelength was 540 nm (slit width; 8 nm). First, blank values (in triplicate) were obtained for the buffer containing PL. dEGR-IXa was then added and the emission intensity in the absence of the A2 subunit was recorded. Each reaction mixture was subsequently titrated with the A2 subunit and the emission readings (in triplicate) were obtained at each time point. The fluorescence emission intensity at each point was corrected for increases in the reaction volume prior to analysis of the data. […] Data are presented as F/F0 where F0 is the emission intensity in the absence of A2 subunit and F is the intensity at a given A2 subunit concentration.

T1 sequence (P00742 183-488 limits assumed): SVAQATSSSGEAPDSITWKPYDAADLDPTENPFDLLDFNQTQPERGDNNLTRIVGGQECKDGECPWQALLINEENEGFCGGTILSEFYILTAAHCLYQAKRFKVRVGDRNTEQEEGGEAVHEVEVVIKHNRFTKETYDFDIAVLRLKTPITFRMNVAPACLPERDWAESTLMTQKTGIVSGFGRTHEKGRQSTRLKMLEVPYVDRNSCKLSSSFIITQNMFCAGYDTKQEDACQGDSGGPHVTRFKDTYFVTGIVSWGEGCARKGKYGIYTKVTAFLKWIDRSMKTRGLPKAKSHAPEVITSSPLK
T1 sequence (P00742 41-179 limits assumed): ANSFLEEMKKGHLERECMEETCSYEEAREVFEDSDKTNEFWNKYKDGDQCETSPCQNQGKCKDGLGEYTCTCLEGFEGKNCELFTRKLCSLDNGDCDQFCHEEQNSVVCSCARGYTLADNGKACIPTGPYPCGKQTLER

| Change in ΔG°peptide between the mutant and WT [2] [kcal/mol] | Fold-change in apparent Kdpeptide (mutant/WT) [2] | Kd [2] [µM] | ΔG°peptide [2] [kcal/mol] | Change in dansyl fluorescence emission intensity on titration with A2 subunit ([3]; 220 nM dEGR-IXa protein) | Plateau value for F/F0 ([3]; bimolecular association model fit, 220 nM dEGR-IXa protein, 100 μM PL) | Kd ([3]; bimolecular association model fit, read-out: Apparent KdA2 from fluorescence quenching) [µM] | Substance | kcat ([1]; PL 10 μM) [s⁻¹] | Km ([1]; PL 10 μM) [µM] | kcat ([1]; PL 25 μM) [s⁻¹] | Km ([1]; PL 25 μM) [µM] | kcat ([1]; PL 50 μM) [s⁻¹] | Km ([1]; PL 50 μM) [µM] | kcat ([1]; PL 100 μM) [s⁻¹] | Km ([1]; PL 100 μM) [µM] |
| --- | --- | --- | --- | --- | --- | --- | --- | --- | --- | --- | --- | --- | --- | --- | --- |
| 1.62 | ~15 | 62 ± 9 | 5.74 | little if any change |  |  | IXaR333Q: activated factor IX point mutant in which Arg333 is replaced by Gln | 0.0002 | 0.11 | 0.0003 | 0.18 | 0.0005 | 0.23 | 0.000667 | 0.61 |
|  |  | 4 ± 1 | 7.36 | dose-dependent decrease | 0.59±0.05 | ~0.1 | IXaWT: activated recombinant wild-type factor IX (IXWT) | 0.000167 | 0.09 | 0.0002 | 0.12 | 0.0004 | 0.24 | 0.000633 | 0.57 |
